The supplement of paper PMC10567573

B1: CDC25B (parent)
chain: ELKTFRLKTRSWAGERSRRELCSR
B2: KRT71 (parent)
chain: FGSRSLYSLGGVRSLNVASGSGKS

Variants of: B1
Assay: protein stability index of a GFP-peptide fusion (GPS, HEK-293T) (PSI 1-6); higher = more stable
Conditions: c terminus: a fixed tail appended
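Also: lentivirally expressed fusions sorted by FACS into six bins by GFP to DsRed ratio, PSI derived from sequencing read proportions per bin multiplied by bin number.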

Protein stability index, by site and new letter:
A13: T 3.1, L 2.62, P 3.84, S 2.85, V 2.44, Q 3.01, M 2.92, N 3.81, W 2.2, D 3.98, F 1.88, Y 2.22, I 2.22, C 2.94, K 3.31, R 3.49, H 3.81, E 3.23, G 3.41
S17: L 2.87, F 2.24, A 3.4, H 3.21, K 2.77, E 4.03, D 3.46, M 2.52, C 2.69, N 2.93, I 2.32, G 2.7
S11: G 2.94, E 3.11, Q 2.58, C 2.63, L 2.61, N 3.2, I 2.71, H 1.95, T 3.1, V 2.11, A 2.68, W 2.57, F 2.58, P 2.59, M 2.42, D 2.95, K 2.64, R 2.4
K8: L 3.2, A 2.88, F 2.28, W 2.1, C 2.73, I 1.92, R 5.09, S 3.55, M 2.8, V 2.68, P 2.77, T 3.65, H 3.07, Q 3.34, E 3.2, D 3.41, Y 2.71, G 2.4, N 2.99
E1: P 3.72, R 3.03, M 2.2, F 1.95, A 3.96, C 3.07, D 3.03, T 2.69, H 3.29, V 3.31, K 2.97, I 1.9, S 3.2, N 3.01, Q 3.57, G 3.09, Y 2.19, W 2.6, L 2.8
T4: M 2.96, L 2.85, Y 3.27, E 3.16, P 3.41, G 2.9, N 2.09, F 2.79, H 3.27, S 3.6, Q 3.18, I 2.26, D 4.42, V 3.27, K 2.61, A 3.47, C 2.56, R 2.52
L7: N 3.57, W 2.99, S 3.91, Y 3.29, D 3.86, K 4.68, R 4.57, Q 3.75, A 3.75, E 4.07, I 3.25, C 3.98, T 4.08, V 3.33, P 3.99, M 3.81, G 4.12, H 3.6
T9: K 3.84, V 2.6, C 3.58, S 4.09, I 1.99, E 3.69, A 3.66, L 2.09, H 3.29, G 4, P 3.14, W 1.54, R 4.65, F 2.18, Y 3.16, Q 3.13, N 3.66, D 3.35, M 2.3
K3: I 1.89, W 2.44, D 3.33, T 3.2, Y 2.91, L 2.14, V 2.67, G 3.71, E 3.29, A 2.92, H 3.63, N 3.38, R 3.6, P 3.42, F 1.61, C 2.78, M 3.02, S 3.62, Q 3.25
R10: H 3.04, P 3.13, A 3.15, F 2.54, L 3.38, E 2.66, S 3.5, C 2.94, W 2.41, N 3.13, D 3.62, Y 3.19, Q 3.1, M 2.92, I 2.8, G 2.44, T 2.37, K 3.66, V 2.45
F5: H 3.92, M 3.6, Y 3.94, N 3.63, L 3.65, V 3.96, E 2.5, T 3.82, A 4.09, Q 3.67, D 4.08, R 3.78, S 3.94, P 4.43, K 4.24, W 2.87, I 3.59, C 3.09, G 3.69
L2: V 3.44, F 2.54, S 4.12, P 3.89, Q 4.5, Y 3.78, C 4.24, R 3.67, G 3.75, T 3.72, W 2.83, A 4.42, N 4.04, H 3.74, M 3.87, I 3.17, K 3.53, E 4.97, D 3.81
R6: N 3.3, W 1.89, A 2.78, I 2.06, T 3.39, K 2.85, V 2.32, D 3.17, C 2.14, E 1.84, Q 3.75, P 3.75, L 2.04, S 3.33, M 2.14, H 3.25, F 1.75, G 3.34, Y 2.42
G14: M 2.66, Y 2.05, K 2.7, H 2.65, W 3.23, F 3.15, I 2.67, V 2.19, D 3.62, L 2.61, A 2.42, Q 2.58, C 2.5, E 3.16, N 2.48, P 2.25, T 3.53, S 2.39, R 2.73
R16: H 3.46, S 3.9, C 2.97, M 2.97, V 1.93, D 3.83, Y 3.61, E 3.64, P 3.67, Q 3.62, N 3.34, L 2.91, W 2.55, F 2.6, I 2.53, G 3.74, T 3.87, A 3.64, K 2.81
W12: Y 3.66, G 3.54, M 2.43, K 3.94, A 3.16, V 3.45, C 2.87, Q 3.49, D 4.12, N 3.45, F 3.34, S 3.54, T 3.38, P 3.55, H 3.64, I 3.3, E 4.2, R 4.08, L 3.41
E15: C 2.44, S 2.96, L 2.78, T 2.98, P 3.2, Y 2.46, G 2.68, R 3.06, D 3.36, H 3.02, Q 3.06, K 3.3, M 2.67, N 2.66, W 2.4, A 3.04, V 2.51, I 2.75, F 2.58

Variants of: B2
Assay: as above
Conditions: c terminus: a fixed tail appended

Protein stability index: each site, then its substitutions
S24: I 1.61, G 1.97, T 1.81, H 1.66, D 1.89, Y 1.39, A 1.73, L 1.76, C 1.71, R 1.49, N 1.7, K 2.22, Q 1.55, M 1.62, V 1.26, P 2.33, E 2.21, F 1.41, W 1.74
K23: W 2.56, Y 1.69
